Measurements as given in article PMC6165534, “Inhibition of Homophilic Interactions and Ligand Binding of the Receptor for Advanced Glycation End Products by Heparin and Heparin-Related Carbohydrate Structures” (Medicines, 2018).

B1: sRAGE–Ig fusion protein lacking C1-domain (Fc fusion, human, UniProt Q15109 28-331, looked up)
chain: ARIGEPLVLKCKGAPKKPPQRLEWKLNTGRTEAWKVLSPQGGGPWDSVARVLPNGSLFLPAVGIQDEGIFRCQAMNRNGKETKSNYRVRVYQPVPLEEVQLVVEPEGGAVAPGGTVTLTCEVPAQPSPQIHWMKDGVPLPLPPSPVLILPEIGPQDQGTYSCVATHSSHGPQESRAVSISIIEPGEEGPTAG
notes: RAGE, human, extracellular part without the C1-domain, amino acids 28–119 + 232–331; also called delta C1; source: Drosophila S2 cells, purified (protein A-agarose chromatography)
B2: sRAGE–Ig fusion protein lacking C2-domain (Fc fusion, human, UniProt Q15109 28-231, looked up)
chain: ARIGEPLVLKCKGAPKKPPQRLEWKLNTGRTEAWKVLSPQGGGPWDSVARVLPNGSLFLPAVGIQDEGIFRCQAMNRNGKETKSNYRVRVYQIPGKPEIVDSASELTAGVPNKVGTCVSEGSYPAGTLSWHLDGKPLVPNEKGVSVKEQTRRHPETGLFTLQSELMVTPARGGDPRPTFSCSFSPGLPRHRALRTAPIQPRVWE
notes: RAGE, human, extracellular part without the C2-domain, amino acids 28–231; also called delta C2; source: Drosophila S2 cells, purified (protein A-agarose chromatography)
B3: RAGE V1-domain Ig-fusion protein (Fc fusion, human, UniProt Q15109 28-119, looked up)
chain: ARIGEPLVLKCKGAPKKPPQRLEWKLNTGRTEAWKVLSPQGGGPWDSVARVLPNGSLFLPAVGIQDEGIFRCQAMNRNGKETKSNYRVRVYQ
notes: RAGE, human, V1-domain, amino acids 28–119; also called V1–Ig; RAGE V1–Fc; source: Drosophila S2 cells, purified (protein A-agarose chromatography)

Target: the molecule itself
Experiment: bead aggregation assay; monomeric fluorescent protein A coated beads incubated with 10 μg/mL of the Ig-fusion proteins, no other exogenous ligands; aggregation followed by fluorescence microscopy, index Nt/N0, pictures after 60 min

Binding result, binds:
B1
B2
B3
